In assay [1] the target is T1, Her2 expressed on the cell surface of the human breast cancer cell line KPL-4 (human, UniProt P04626 23-1255).
T1 construct: endogenous Her2 of KPL-4 cells stood in the assay; also called ErbB2; human epidermal growth factor receptor-2
The assay is described as follows: flow cytometry (MFI PE); panel title on the sheet: Binding to human Her2, KPL4; R-PE F(ab')2 goat anti-human IgG Fcgamma secondary. Background: Flow cytometry measures light scatter and fluorescence of single cells or particles in a stream.

The target of assay [2] is T2, human CD28 on CHO cells (parental cell line CHO-k1 ATCC #CCL-61, modified to stably overexpress human CD28) (human, UniProt P10747 19-220).
T2 construct: The whole entry (with signal peptide) is named; also called CHOk1-huCD28; CHOk1 huCD28
The assay is described as follows: flow cytometry (MFI PE); panel title on the sheet: Binding to human CD28, CHO-k1-huCD28; R-PE F(ab')2 goat anti-human IgG Fcgamma secondary.

For assay [3], the target named is T2, human CD28 on CHO cells (parental cell …). Kind of assay: flow cytometry (MFI PE), one-armed IgG from supernatant on CHO-k1 cells stably overexpressing human CD28; PE-conjugated goat anti-human secondary.
The target is the same in assay [4]. Described as above. This is another data set of the same source.

B1: Molecule B: Her2 (pertuzumab CLC)-CD28 (SA_Variant 8) 1+1 format (bispecific antibody, human IgG1, kappa, L234A L235A)
heavy 1: not shown
light 1: QVQLVQSGAEVKKPGASVKVSCKASGYTFTSYYIHWVRQAPGQGLEWIGSIYPGNVQTNYNEKFKDRATLTVDTSISTAYMELSRLRSDDTAVYFCTRSHYGLDFNFDVWGQGTTVTVSSASVAAPSVFIFPPSDEQLKSGTASVVCLLNNFYPREAKVQWKVDNALQSGNSQESVTEQDSKDSTYSLSSTLTLSKADYEKHKVYACEVTHQGLSSPVTKSFNRGEC
heavy 2: EVQLVESGGGLVQPGGSLRLSCAASGFTFNDYTMDWVRQAPGKGLEWVADVNPNSGGSIVNRRFKGRFTLSVDRSKNTLYLQMNSLRAEDTAVYYCARNLGPFFYFDYWGQGTLVTVSSASTKGPSVFPLAPSSKSTSGGTAALGCLVEDYFPEPVTVSWNSGALTSGVHTFPAVLQSSGLYSLSSVVTVPSSSLGTQTYICNVNHKPSNTKVDEKVEPKSCDKTHTCPPCPAPEAAGGPSVFLFPPKPKDTLMISRTPEVTCVVVDVSHEDPEVKFNWYVDGVEVHNAKTKPREEQYNSTYRVVSVLTVLHQDWLNGKEYKCKVSNKALGAPIEKTISKAKGQPREPQVCTLPPSRDELTKNQVSLSCAVKGFYPSDIAVEWESNGQPENNYKTTPPVLDSDGSFFLVSKLTVDKSRWQQGNVFSCSVMHEALHNHYTQKSLSLSP
light 2: DIQMTQSPSSLSASVGDRVTITCKASQDVSTAVAWYQQKPGKAPKLLIYSASFRYTGVPSRFSGSRSGTDFTLTISSLQPEDFATYYCQQHYTTPPTFGQGTKVEIKRTVAAPSVFIFPPSDRKLKSGTASVVCLLNNFYPREAKVQWKVDNALQSGNSQESVTEQDSKDSTYSLSSTLTLSKADYEKHKVYACEVTHQGLSSPVTKSFNRGEC
notes: huIgG1 PG-LALA CrossFab: VH/VL exchange in the CD28 Fab (knob), charged modifications in the Her2 Fab (hole); also called P1AF8305
For the molecule B1, in assay [1], the EC50 (read off the curve) (usually the concentration needed to bring the measured effect to its halfway point) is about 3 nM. The binding result in assay [2] was “binds”.

B2: Molecule D: Her2 (trastuzumab CLC)-CD28 (SA_variant 8) 1+1 (bispecific antibody, human IgG1, kappa, L234A L235A)
heavy 1: not shown
light 1: QVQLVQSGAEVKKPGASVKVSCKASGYTFTSYYIHWVRQAPGQGLEWIGSIYPGNVQTNYNEKFKDRATLTVDTSISTAYMELSRLRSDDTAVYFCTRSHYGLDFNFDVWGQGTTVTVSSASVAAPSVFIFPPSDEQLKSGTASVVCLLNNFYPREAKVQWKVDNALQSGNSQESVTEQDSKDSTYSLSSTLTLSKADYEKHKVYACEVTHQGLSSPVTKSFNRGEC
heavy 2: not shown
light 2: DIQMTQSPSSLSASVGDRVTITCKASQDVSTAVAWYQQKPGKAPKLLIYSASFRYTGVPSRFSGSRSGTDFTLTISSLQPEDFATYYCQQHYTTPPTFGQGTKVEIKRTVAAPSVFIFPPSDRKLKSGTASVVCLLNNFYPREAKVQWKVDNALQSGNSQESVTEQDSKDSTYSLSSTLTLSKADYEKHKVYACEVTHQGLSSPVTKSFNRGEC
notes: huIgG1 PG-LALA CrossFab: VH/VL exchange in the CD28 Fab (knob), charged modifications in the Her2 Fab (hole); also called P1AF8338
Consider B2, for which, in assay [1], the “EC50 (read off the curve)” value was about 3 nM. In assay [2], the binding result is “binds”.

B3: CD28(SA)_variant_15 (antibody, human IgG1, kappa, L234A L235A)
heavy: not shown
light: not shown
chain: DKTHTCPPCPAPEAAGGPSVFLFPPKPKDTLMISRTPEVTCVVVDVSHEDPEVKFNWYVDGVEVHNAKTKPREEQYNSTYRVVSVLTVLHQDWLNGKEYKCKVSNKALGAPIEKTISKAKGQPREPQVCTLPPSRDELTKNQVSLSCAVKGFYPSDIAVEWESNGQPENNYKTTPPVLDSDGSFFLVSKLTVDKSRWQQGNVFSCSVMHEALHNRFTQKSLSLSP
notes: tested from HEK supernatant, unpurified; also called P1AE3071
For the molecule B3, the binding result in assay [3] was “binds”.

B4: CD28(SA)_variant_12 (antibody, human IgG1, kappa, L234A L235A)
heavy: not shown
light: DIQMTQSPSSLSASVGDRVTITCRASQNIYVWLNWYQQKPGKAPKLLIYKASNLYSGVPSRFSGSRSGTDFTLTISSLQPEDFATYYCQQGQTYPYTFGQGTKLEIKRTVAAPSVFIFPPSDRKLKSGTASVVCLLNNFYPREAKVQWKVDNALQSGNSQESVTEQDSKDSTYSLSSTLTLSKADYEKHKVYACEVTHQGLSSPVTKSFNRGEC
chain: DKTHTCPPCPAPEAAGGPSVFLFPPKPKDTLMISRTPEVTCVVVDVSHEDPEVKFNWYVDGVEVHNAKTKPREEQYNSTYRVVSVLTVLHQDWLNGKEYKCKVSNKALGAPIEKTISKAKGQPREPQVCTLPPSRDELTKNQVSLSCAVKGFYPSDIAVEWESNGQPENNYKTTPPVLDSDGSFFLVSKLTVDKSRWQQGNVFSCSVMHEALHNRFTQKSLSLSP
notes: tested from HEK supernatant, unpurified; also called P1AE3068
For the molecule B4, the binding result in assay [3] is “binds”.

B5: CD28(SA)_variant_25 (antibody, human IgG1, kappa, L234A L235A)
heavy: not shown
light: not shown
chain: DKTHTCPPCPAPEAAGGPSVFLFPPKPKDTLMISRTPEVTCVVVDVSHEDPEVKFNWYVDGVEVHNAKTKPREEQYNSTYRVVSVLTVLHQDWLNGKEYKCKVSNKALGAPIEKTISKAKGQPREPQVCTLPPSRDELTKNQVSLSCAVKGFYPSDIAVEWESNGQPENNYKTTPPVLDSDGSFFLVSKLTVDKSRWQQGNVFSCSVMHEALHNRFTQKSLSLSP
notes: tested from HEK supernatant, unpurified; also called P1AE3081
For the molecule B5, the binding result in assay [4] was “binds”.

B6: CD28(SA)_variant_16 (antibody, human IgG1, kappa, L234A L235A)
heavy: not shown
light: not shown
chain: DKTHTCPPCPAPEAAGGPSVFLFPPKPKDTLMISRTPEVTCVVVDVSHEDPEVKFNWYVDGVEVHNAKTKPREEQYNSTYRVVSVLTVLHQDWLNGKEYKCKVSNKALGAPIEKTISKAKGQPREPQVCTLPPSRDELTKNQVSLSCAVKGFYPSDIAVEWESNGQPENNYKTTPPVLDSDGSFFLVSKLTVDKSRWQQGNVFSCSVMHEALHNRFTQKSLSLSP
notes: tested from HEK supernatant, unpurified; also called P1AE3072
In the case of B6, the binding result in assay [3] is recorded as “binds”.

B7: CD28(SA)_variant_26 (antibody, human IgG1, kappa, L234A L235A)
heavy: not shown
light: not shown
chain: DKTHTCPPCPAPEAAGGPSVFLFPPKPKDTLMISRTPEVTCVVVDVSHEDPEVKFNWYVDGVEVHNAKTKPREEQYNSTYRVVSVLTVLHQDWLNGKEYKCKVSNKALGAPIEKTISKAKGQPREPQVCTLPPSRDELTKNQVSLSCAVKGFYPSDIAVEWESNGQPENNYKTTPPVLDSDGSFFLVSKLTVDKSRWQQGNVFSCSVMHEALHNRFTQKSLSLSP
notes: tested from HEK supernatant, unpurified; also called P1AE3082
On to B7, for which the binding result in assay [4] was “binds”.

B8: CD28(SA)_variant_27 (antibody, human IgG1, kappa, L234A L235A)
heavy: not shown
light: not shown
chain: DKTHTCPPCPAPEAAGGPSVFLFPPKPKDTLMISRTPEVTCVVVDVSHEDPEVKFNWYVDGVEVHNAKTKPREEQYNSTYRVVSVLTVLHQDWLNGKEYKCKVSNKALGAPIEKTISKAKGQPREPQVCTLPPSRDELTKNQVSLSCAVKGFYPSDIAVEWESNGQPENNYKTTPPVLDSDGSFFLVSKLTVDKSRWQQGNVFSCSVMHEALHNRFTQKSLSLSP
notes: tested from HEK supernatant, unpurified; also called P1AE3083
Turning to B8, the binding result in assay [4] is on record as “binds”.

B9: CD28(SA)_variant_30 (antibody, human IgG1, kappa, L234A L235A)
heavy: not shown
light: DIQMTQSPSSLSASVGDRVTITCRASQNIYVWLNWYQQKPGKAPKLLIYKASNLYSGVPSRFSGSRSGTDFTLTISSLQPEDFATYYCQQGQTYPYTFGQGTKLEIKRTVAAPSVFIFPPSDRKLKSGTASVVCLLNNFYPREAKVQWKVDNALQSGNSQESVTEQDSKDSTYSLSSTLTLSKADYEKHKVYACEVTHQGLSSPVTKSFNRGEC
chain: DKTHTCPPCPAPEAAGGPSVFLFPPKPKDTLMISRTPEVTCVVVDVSHEDPEVKFNWYVDGVEVHNAKTKPREEQYNSTYRVVSVLTVLHQDWLNGKEYKCKVSNKALGAPIEKTISKAKGQPREPQVCTLPPSRDELTKNQVSLSCAVKGFYPSDIAVEWESNGQPENNYKTTPPVLDSDGSFFLVSKLTVDKSRWQQGNVFSCSVMHEALHNRFTQKSLSLSP
notes: tested from HEK supernatant, unpurified; also called P1AE3086
Consider B9, for which the binding result in assay [4] is listed as “binds”.

B10: CD28(SA)_variant_29 (antibody, human IgG1, kappa, L234A L235A)
heavy: not shown
light: not shown
chain: DKTHTCPPCPAPEAAGGPSVFLFPPKPKDTLMISRTPEVTCVVVDVSHEDPEVKFNWYVDGVEVHNAKTKPREEQYNSTYRVVSVLTVLHQDWLNGKEYKCKVSNKALGAPIEKTISKAKGQPREPQVCTLPPSRDELTKNQVSLSCAVKGFYPSDIAVEWESNGQPENNYKTTPPVLDSDGSFFLVSKLTVDKSRWQQGNVFSCSVMHEALHNRFTQKSLSLSP
notes: tested from HEK supernatant, unpurified; also called P1AE3085
For B10, in assay [4], the binding result was “binds”.

B11: CD28(SA)_variant_31 (antibody, human IgG1, kappa, L234A L235A)
heavy: not shown
light: not shown
chain: DKTHTCPPCPAPEAAGGPSVFLFPPKPKDTLMISRTPEVTCVVVDVSHEDPEVKFNWYVDGVEVHNAKTKPREEQYNSTYRVVSVLTVLHQDWLNGKEYKCKVSNKALGAPIEKTISKAKGQPREPQVCTLPPSRDELTKNQVSLSCAVKGFYPSDIAVEWESNGQPENNYKTTPPVLDSDGSFFLVSKLTVDKSRWQQGNVFSCSVMHEALHNRFTQKSLSLSP
notes: tested from HEK supernatant, unpurified; also called P1AE3087
Take B11: in assay [4], the binding result is given as “binds”.

B12: CD28(SA)_variant_17 (antibody, human IgG1, kappa, L234A L235A)
heavy: not shown
light: not shown
chain: DKTHTCPPCPAPEAAGGPSVFLFPPKPKDTLMISRTPEVTCVVVDVSHEDPEVKFNWYVDGVEVHNAKTKPREEQYNSTYRVVSVLTVLHQDWLNGKEYKCKVSNKALGAPIEKTISKAKGQPREPQVCTLPPSRDELTKNQVSLSCAVKGFYPSDIAVEWESNGQPENNYKTTPPVLDSDGSFFLVSKLTVDKSRWQQGNVFSCSVMHEALHNRFTQKSLSLSP
notes: tested from HEK supernatant, unpurified; also called P1AE3073
As for B12, the binding result in assay [3] is recorded as “binds”.

B13: CD28(SA)_variant_13 (antibody, human IgG1, kappa, L234A L235A)
heavy: not shown
light: not shown
chain: DKTHTCPPCPAPEAAGGPSVFLFPPKPKDTLMISRTPEVTCVVVDVSHEDPEVKFNWYVDGVEVHNAKTKPREEQYNSTYRVVSVLTVLHQDWLNGKEYKCKVSNKALGAPIEKTISKAKGQPREPQVCTLPPSRDELTKNQVSLSCAVKGFYPSDIAVEWESNGQPENNYKTTPPVLDSDGSFFLVSKLTVDKSRWQQGNVFSCSVMHEALHNRFTQKSLSLSP
notes: tested from HEK supernatant, unpurified; also called P1AE3069
For B13, the binding result in assay [3] is “binds”.

The record behind these values is patent US20220017637A1 (Hoffmann-La Roche, published 2022).
